The data set concerns MS2 coat protein. The experiment in a line: apparent KD of MS2 coat protein; higher = weaker reporter binding. The conditions noted are these: Eterna round: R107. As to the method: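 RNA-MaP round R107: designed RNA switches with theophylline, tryptophan, arginine or FMN aptamers are transcribed on-chip within common flanks. They are titrated with SNAP-549-labelled MS2 coat protein in RNA-MaP buffer (100 mM Tris pH 7.5, 80 mM KCl, 4 mM MgCl2), without ligand or with the indicated ligand. Median apparent KD per design.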

Where [1] appears, read: input ligand: theophylline 20 uM.
[2] abbreviates: input ligand: theophylline 2 mM.
[3] abbreviates: input ligand: tryptophan 2.4 mM.

As to “GGUACAUGAGGAUCACCCAUGUAUUAGUGCCGAGGACCGGUACGGCCGCCACUCGCUUCACAUGAGGAUCACCCAUGUGUCACAG [SSTA DOUBLE!!! :-D #13]”, the “apparent KD of MS2 coat protein” value (input ligand: arginine 13.2 mM) worked out at 22.4 nM, the “apparent KD of MS2 coat protein” value under setting [1] turned out to be 38.4 nM and the “apparent KD of MS2 coat protein” value under setting [2] is 39.7 nM.
For “AAUAAAUCGCCUGAUACCAGCGCUGGCGGACAUGAGGAUCACCCAUGUGUUACAGGCGGACGCCCUUGGCAGCGGAGCGGGAUCU [U-Shape]”, the “apparent KD of MS2 coat protein” value is 16.2 nM (input ligand: arginine 13.2 mM); 20.2 nM (input ligand: none); 21.4 nM under setting [1]; 23 nM under setting [2]; 19.6 nM under setting [3].
In the case of “CCCAUACAUGAGGAUCACCCAUGUGUUGAUACCAGCAUAUGUAGAUGCCCUUGGCAGCAAGCUUGGGUCACUGGAAAACAUCUAA [theeternabot_sameState_MS2_Theo_A_38]”, the “apparent KD of MS2 coat protein” value by setting is: (input ligand: arginine 13.2 mM) 23.8 nM; under setting [1], 27.4 nM; under setting [3], 22.6 nM.
As for “ACACAUGAGGAUCACCCAUGUAAAGUUGAAGGAGCGAUCAUUAGGUCAGGUAGGUCGCAGCACAUGAGGAUCACCCAUGUCGUGA [DOUBLE!!! :-D #2]”, the “apparent KD of MS2 coat protein” value is, setting by setting: (input ligand: arginine 13.2 mM) 31.3 nM; (input ligand: none) 96.1 nM; under setting [1], 85.5 nM; under setting [2], 73.7 nM; under setting [3], 86.9 nM.
Turning to “ACACCAUACAUGAGGAUCACCCAUGUUACACGAGGACCGGUACGGCCGCCACUCGAAUUCAGGAAACCUCGGAUAAUAUUGUGAA [JR_SS-TryptA_Sub001]”, the “apparent KD of MS2 coat protein” value (input ligand: arginine 13.2 mM) was found to be 22.3 nM, the “apparent KD of MS2 coat protein” value under setting [1] was 50.1 nM and the “apparent KD of MS2 coat protein” value under setting [2] was 32.4 nM.
Turning to “GCGAUGGAGCGAAGGAGCGUGCUGGUACAUGAGGAUCACCCAUGUGAGUCGCAUCGCUAAGCACAGGUAGGUCGCGCUCCAUCGC [EAB NP+V+V2 #10]”, the “apparent KD of MS2 coat protein” value worked out at 48.6 nM (input ligand: arginine 13.2 mM); 58.4 nM (input ligand: none); 85 nM under setting [1]; 83 nM under setting [2]; 66.5 nM under setting [3].
“UGGACGCAACGAGCACGAGGUCGGCAGCUACGAGGACCGGUACGGCCGCCACUCGAGUUACGACAUGAGGAUCACCCAUGUAAGG [theeternabot_exclusion_MS2_Trp_A_45]”: the “apparent KD of MS2 coat protein” value was 27.9 nM (input ligand: arginine 13.2 mM), 61.1 nM under setting [1] and 51.8 nM under setting [2].
In the case of “GGGAGGUAGGCGGCCGCCACUGAUUUUCAUAUAUAUAUAACAUGAGGAUCACCCAUGUAGAUAUACAGGACCGGGCCUAUUUUUU [aaaF]”, the “apparent KD of MS2 coat protein” value reads like this: (input ligand: arginine 13.2 mM) 30.2 nM; (input ligand: none) 18.8 nM; under setting [1], 21.9 nM; under setting [2], 18.2 nM; under setting [3], 14.2 nM.
Take “UCUUUCUUUGUAGAUACCAGCGUGUUAUCUUUCUUUUGACAUGAGGAUCACCCAUGUAUAUGCCCUUGGCAGCUACAUAUUCUUU [#01 Same State - Theophylline B]”: the “apparent KD of MS2 coat protein” value turned out to be 18.1 nM (input ligand: arginine 13.2 mM), 23.6 nM under setting [1] and 18.2 nM under setting [3].
For the sequence “UGUAUGGACUGAAGGAGCGGGUUGAUAAUCUGAGGAUCACCCAGGUAAAAGGCGAAAGCCGCCCAGGUAGGUCGCAGUCCAUACU”, the “apparent KD of MS2 coat protein” value by setting is: (input ligand: arginine 13.2 mM) 20.5 nM; (input ligand: none) 25.3 nM; under setting [1], 36.1 nM; under setting [2], 31.5 nM; under setting [3], 33.4 nM.
Take “ACGAACGCACCUGAGGAUCACCCGGGUGAUACCAGCCUGGAAACAGGCCCUUGGCAGCACCUAAAAUAAAGGUAACGUUCGAAUA [TheoAX9 #MicroSwitchBubble #AlternativeMS2]”: the “apparent KD of MS2 coat protein” value was 116 nM (input ligand: arginine 13.2 mM); 335 nM (input ligand: none); 234 nM under setting [1]; 590 nM under setting [2]; 303 nM under setting [3].
Turning to “AAGGUGAUCCUCGAUACCAGCUCAACAUGAGGAUCACCCAUGUAAGCCUGGAAACAGGCGAGCCCUUGGCAGCGAGUUACAUCAA [(M)'-(Theo1)-(Ms2)-(Theo2)-(M'')]”, the “apparent KD of MS2 coat protein” value stood at 32.9 nM (input ligand: arginine 13.2 mM), 78.2 nM under setting [1] and 18.6 nM under setting [3].
Consider “ACAUGAAUAUCAUCUAUUUAUUGUACUGAAGGAGCGUCCAUGAGGACAGGUAGGUCGCAGUGUAAAACAUGAGGAUCACCCAUGU [Same State - Arginine A #1]”, for which the “apparent KD of MS2 coat protein” value is, setting by setting: (input ligand: arginine 13.2 mM) 22.6 nM; (input ligand: none) 22.2 nM; under setting [1], 36.6 nM; under setting [2], 29 nM; under setting [3], 23 nM.
With “AAUGCCGGAUCGGCCGCCACUGGUUGGCUCUGUGUACAUGAGGAUCACCCAUGUCCAUCCCAAACCAGGACCGGGAUCUUUGUGU [Veonmale]”, the “apparent KD of MS2 coat protein” value by setting is: (input ligand: arginine 13.2 mM) 14.6 nM; under setting [1], 17.4 nM; under setting [2], 13.5 nM.
With “AUACCUAAUGUUACAUUUACCUUAUCAGAUACCAGACUUUACGUUGUCCCUUGGCAGCUGUAUCACAUGAGGAUCACCCAUGUUG [JR_SSTheophyA_Sub010]”, the “apparent KD of MS2 coat protein” value reads like this: (input ligand: arginine 13.2 mM) 17.1 nM; under setting [1], 19.2 nM; under setting [3], 15.3 nM.
Take “UAGUUAGCGGCGGCCGCCACUCGAGAUAUAACAUGAUAUCAUAACAUGAGGAUCACCCAUGUCACGAGGACCGGGCCGAUCUUCA [Same State Typptophan B GF6]”: the “apparent KD of MS2 coat protein” value reads like this: (input ligand: arginine 13.2 mM) 27.9 nM; (input ligand: none) 48.5 nM; under setting [1], 102 nM; under setting [2], 163 nM; under setting [3], 49.4 nM.
With “AGCGUAUAGACGGAUACCAGCGCCGAUUAACAUGAGGAUCACCCAUGUAGUGUGGGUGGACGCCCUUGGCAGCCGAGUAUAGGUA [#07 Exclusion-TheophyllineB]”, the “apparent KD of MS2 coat protein” value runs as follows: (input ligand: arginine 13.2 mM) 391 nM; (input ligand: none) 89.7 nM; under setting [1], 115 nM; under setting [2], 360 nM; under setting [3], 221 nM.
